Experimental data as given in article PMC10730160 (mAbs, 2023).

Legend:
[1] = biological target: CTLA-4 antigen (in solution, for HDX-MS and cross-linking) (human, UniProt P16410); test: HDX-MS
[2] = biological target: mouse CTLA-4, on CHO-K1 cells (Mus musculus, UniProt P09793); test: ELISA
[3] = biological target: human CTLA-4, wild type, on CHO-K1 cells (human, UniProt P16410); test: flow cytometry on cells
human CTLA-4, wild type, on CHO-K1 cells, sequence (P16410 36-223): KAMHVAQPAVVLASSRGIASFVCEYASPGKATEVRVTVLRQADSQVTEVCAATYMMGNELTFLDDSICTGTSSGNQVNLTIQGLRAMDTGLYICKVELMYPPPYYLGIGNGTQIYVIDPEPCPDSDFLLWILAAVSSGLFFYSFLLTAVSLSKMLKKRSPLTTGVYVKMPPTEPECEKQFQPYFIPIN

CTLA-4 antigen (in solution, for HDX-MS and cross-linking), sequence (P16410 36-223): as above

binding result [1]: binds | binding result [2]: no binding | binding result [3]: binds
B1: tremelimumab (antibody, V domains shown)
VH: QVQLVESGGGVVQPGRSLRLSCAASGFTFSSYGMHWVRQAPGKGLEWVAVIWYDGSNKYYADSVKGRFTISRDNSKNTLYLQMNSLRAEDTAVYYCARDPRGATLYYYYYGMDVWGQGTTVTVSS
VL: DIQMTQSPSSLSASVGDRVTITCRASQSINSYLDWYQQKPGKAPKLLIYAASSLQSGVPSRFSGSGSGTDFTLTISSLQPEDFATYYCQQYYSTPFTFGPGTKVEIK
